Data reported in patent publication US20230250168A1 (MABWELL SHANGHAI BIOSCIENCE, published 2023).
Numbering of substitutions follows the chain as printed.

B1: IMAB362 (antibody, human IgG1, kappa, V domains shown)
VH: QVQLQQPGAELVRPGASVKLSCKASGYTFTSYWINWVKQRPGQGLEWIGNIYPSDSYTNYNQKFKDKATLTVDKSSSTAYMQLSSPTSEDSAVYYCTRSWRGNSFDYWGQGTTLTVSS
VL: DIVMTQSPSSLTVTAGEKVTMSCKSSQSLLNSGNQKNYLTWYQQKPGQPPKLLIYWASTRESGVPDRFTGSGSGTDFTLTISSVQAEDLAVYYCQNDYSYPFTFGSGTKLEIKR
notes: Chimeric anti-CLDN18.2 antibody of Ganymed, used as control; also called control antibody IMAB362
B2: 20L17-xiIgG (antibody, V domains shown)
VH: DVQLVESGGGLVQPGGSRKLSCAASGFTFSSFGMHWVRQAPEKGLEWVAYISSGSSTIYYPDTVKGRFTVSRDNPKNTLFLQMTSLRSEDTAMYYCVRLGPRGNVMDHWGQGTSVTVSS
VL: B1 VL with K36R, D97V, S99F, F102L, S106T, I112L, K113R
notes: murine variable regions on human IgG1 / kappa constant regions; also called 20L17 chimeric antibody
B3: 43L6-xiIgG (antibody, V domains shown)
VH: QVQLKESGPDLVAPSQSLSLTCSVSGFSLTSYGIHWVRQPPGKGLEWLVVIWSDGRTTYNSGLKSRLSISKDNSKSQVLLKMNSLRTDDTAIYYCVRHPAFGPHAMDYWGQGTSVTVSS
VL: DIVMTQAAPSVPVTPGESVSISCRSSKSLLNSNGNTYLYWFLQRPGQSPQLLIYRMSNLASGVPDRFSGSGSGTDFTLRISRVEAGDVGVYYCMQYLEYPVTFGAGTKLELKR
notes: murine variable regions on human IgG1 / kappa constant regions; also called 43L6 chimeric antibody
B4: 11M23-xiIgG (antibody, V domains shown)
VH: QVQLKESGPDLVAPSQSLSITCTVSGFSLTNYGVHWVRQPPGKGLEWLVVIWSDGRINYNSALKSRLSITKDNSKRQVFLKMNSLQIDDTAIYYCVRHPAFGPHAMDYWGQGISVTVSS
VL: B3 VL with A7D, V11I, Q50H, I53L, L59P, V63A, D75E, G86E, V101P, K108R
notes: Murine variable regions on human IgG1 / kappa constant regions; also called 11M23 chimeric antibody
B5: 48G12-xiIgG (antibody, V domains shown)
VH: EVQLRQSGPELVKPGASVKMSCKASGYTFTTYIINWVKQKPGQGLEWIGYINPYNDDTRYNERVKGKATLTSDKSSSTAYMELSSLTSEDSAVYYCARFYFGNSFTYWGQGTLVTVSA
VL: DIVMTQSPSSLPVTVGERVTMTCKSSQGLFNSGNQRNYLTWYQQKPGQPPKLLIYWASTRESGVPDRFTGSGSGTDFTLTISSVQAEDLAIYYCQNNYIYPLTFGAGTKLELKR
notes: murine variable regions on human IgG1 / kappa constant regions; also called 48G12 chimeric antibody
B6: 50C14-xiIgG (antibody, V domains shown)
VH: B5 VH with D57G, Y100H
VL: B5 VL with V15T, R18K, S32N, T69I, Y100F
notes: murine variable regions on human IgG1 / kappa constant regions; also called 50C14 chimeric antibody
B7: 11M23-hz00 (antibody, human IgG1, V domains shown)
VH: QVQLVESGGGVVQPGRSLRLSCAASGFSLTNYGVHWVRQAPGKGLEWVAVIWSDGRINYNSALKSRFTISRDNSKNTLYLQMNSLRAEDTAVYYCARHPAFGPHAMDYWGQGTLVTVSS
VL: DIVMTQSPLSLPVTPGEPASISCRSSKSLLNSNGNTYLYWYLQKPGQSPQLLIYRMSNPASGVPDRFSGSGSGTDFTLKISRVEAEDVGVYYCMQYLEYPPTFGAGTKLEIK
notes: Humanized (direct CDR graft)
B8: 11M23-hz22 (antibody, V domains shown)
VH: B7 VH with D54E, N60Q, R71K
VL: B7 VL with N31S, N33S, Y41F
B9: 11M23-hz11 (antibody, V domains shown)
VH: B7 VH with R71K
VL: B7 VL with Y41F

How the values were obtained:
[1] = target: T1, human CLDN18.2 expressed on cell surfaces (human, UniProt P56856-2 1-261); experiment: cell-based or functional assay
[2] = target: T1, human CLDN18.2 expressed on cell …; experiment: cell-based or functional assay; remark: listed apart in the source
[3] = target: T2, antigen human CLDN18.2, His-tagged (human, UniProt P56856-2 1-261, limits assumed); experiment: SPR (BIAcore), antibody captured by anti-human Fc, antigen as analyte
T2 construct: Recombinant antigen used in the Fortebio assay (His-tagged, captured on NTA probe); also called His-tagged antigen; not shown: His tag
Experimental: Referring to the instructions provided in the Human Antibody Capture Kit (cat No. BR-1008-39, Lot 10261753) from GE Healthcare, the analytical channel and the control sample channel on a CM5 sensor chip were first saturated and coupled with the maximum amount of anti-human Fc antibody, then buffers containing anti-human CLDN18.2 chimeric antibodies, humanized antibodies or a control antibody IMAB362 at 7.5 μg/ml were allowed to flow through the analytical channel and uniformly distribute. Finally, antigen samples diluted in gradient (the initial concentration was 20 nM and diluted by 1:3 to get 8 concentrations, and the concentration 0.741 nM was set to be repeated) were allowed to flow through both the analytical channel and the sample channel, and the photoreactions upon the binding of antibody to antigen were measured. Subsequently, the association constant Kon and dissociation constant Koff and affinity constant KD of each antibody were finally obtained by instrument software fitting analysis.

[4] = target: T1, human CLDN18.2 expressed on cell …; experiment: flow cytometry on CHOK1 cells expressing human CLDN18.2, goat anti-human IgG secondary, normalised MFI
Experimental: The chimeric anti-human CLDN18.2 antibodies were diluted 2-fold in gradient from an initial concentration of 100 nM and solutions of each antibody of 16 concentrations were obtained. 10 μl of the solutions of each antibody of each concentration was added to a 384-well plate. CHOK1 cells expressing CLDN18.2 on the cell surface were collected by centrifugation for 5 min at 100 g at room temperature, and the cells were washed with PBS containing 0.5% BSA once and then were centrifuged for 5 min at 100 g at room temperature. The cells were resuspended at a density of about 2×10⁶ cells/ml, and 10 μl was added to each well of the 384-well plate to which the antibody had been added. After incubation for 1 hour at 4° C., fluorescently labeled secondary goat anti-human IgG antibody was added. After continued incubation for 1 hour at 4° C., the mean fluorescence readings of the cell populations were analyzed by a flow cytometer.

[5] = target: T2, antigen human CLDN18.2, His-tagged; experiment: BLI (Fortebio), His-tagged antigen on NTA probe, 100 nM antibody, 1:1 fit
Experimental: The binding kinetic parameters of the chimeric antibodies and the humanized antibodies thereof to the antigen human CLDN18.2 were analyzed by a Fortebio (BLITZ pro1.1.0.28) instrument. Before performing the assay, an NTA bioprobe was soaked in PBS for 10 min, and the probe was then placed in PBS containing 100 nM antigen for 300 s to capture the His-tagged antigen. The probe was further subjected to a binding reaction with 100 nM antibody for a binding time of 400 s, and the probe was then transferred to PBS and subjected to a dissociation reaction for 600 s. When the assay was finished, data from which the response value of a blank control had been deducted were fitted to a 1:1 Langmuir binding model using software, and then the kinetic constants for antigen-antibody binding were calculated.

Binder	binding result [4]	Kd [5] [nM]	Response [5]	koff [5] [s⁻¹]	kon [5] [M⁻¹ s⁻¹]	further results
B1	–	–	–	–	–	CDC EC50, BxPC3 cells stably expressing human CLDN18.2 (CCK-8) [1]: 52.2 nM; CDC EC50, CHOK1 cells stably expressing human CLDN18.2 (CCK-8) [1]: 30.4 nM; CDC EC50, NCI-N87 cells stably expressing human CLDN18.2 (CCK-8) [1]: 474 nM; ADCC reporter EC50 (Jurkat NFAT-luciferase effector cells), BxPC3 target cells [2]: 0.106 nM; ADCC reporter EC50 (Jurkat NFAT-luciferase effector cells), CHOK1 target cells [2]: 0.593 nM; ADCC reporter EC50 (Jurkat NFAT-luciferase effector cells), NCI-N87 target cells [2]: 0.0909 nM; Kd [3]: 136 nM; koff [3]: 0.201 s⁻¹; kon [3]: 1.48e+06 M⁻¹ s⁻¹
B2	binds	–	–	–	–	–
B3	binds	–	–	–	–	–
B4	–	0.293	0.184	0.000107	366000	–
B5	binds	–	–	–	–	–
B6	binds	–	–	–	–	–
B7	–	1.49	0.164	0.000324	218000	–
B8	–	2.92	0.136	0.00195	670000	–
B9	–	1.29	0.174	0.00046	356000	–
